Source: publication PMC7442819, “Taf14 recognizes a common motif in transcriptional machineries and facilitates their clustering by phase separation” (Nature Communications, 2020)
Several values for one entry are separate records, joined by “and”; a condition that tells them apart may be missing. Equal entries are not always repeated.

B8: Taf14ET (Taf14_(174–244)) (domain or fragment, Saccharomyces cerevisiae, UniProt P35189 174-244, looked up)
chain: KGSVDLEKLAFGLTKLNEDDLVGVVQMVTDNKTPEMNVTNNVEEGEFIIDLYSLPEGLLKSLWDYVKKNTE
notes: Taf14, Saccharomyces cerevisiae, ET domain, residues 174-244; 15N- or 15N/13C-labelled for NMR; also called Taf14 ET domain; 15N-Taf14ET; source: E. coli Rosetta, purified (Ni-NTA, on-beads digestion, SEC)
B13: GST-Taf14_(174–244) (domain or fragment, Saccharomyces cerevisiae, UniProt P35189 174-244, looked up)
chain: KGSVDLEKLAFGLTKLNEDDLVGVVQMVTDNKTPEMNVTNNVEEGEFIIDLYSLPEGLLKSLWDYVKKNTE
notes: Taf14, Saccharomyces cerevisiae, ET domain, residues 174-244; also called GST-Taf14ET; GST-tagged Taf14ET; source: E. coli Rosetta, purified (Ni-NTA, eluted as GST-fused protein, SEC); not shown: 6*His-GST, N-terminal, kept

How the values were obtained:
[1] = molecular target: T1, Taf14ET (Taf14_(174–244)) (Saccharomyces cerevisiae), P35189; experiment: ITC; conditions: modification not given
T1 chain: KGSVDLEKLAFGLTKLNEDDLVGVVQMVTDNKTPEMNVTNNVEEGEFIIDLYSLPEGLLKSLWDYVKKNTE

[2] = molecular target: T2, Taf14ET (Taf14_(174–244)) (Saccharomyces cerevisiae, UniProt P35189 174-244); experiment: ITC
T2 chain: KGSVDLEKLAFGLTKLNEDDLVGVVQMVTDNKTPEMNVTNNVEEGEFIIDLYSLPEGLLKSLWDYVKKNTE

Taf14ET F220R = Taf14ET F220R (Saccharomyces cerevisiae, UniProt P35189 174-244, F220R); experiment: ITC
Taf14ET I222R = Taf14ET I222R (Saccharomyces cerevisiae, UniProt P35189 174-244, I222R); experiment: ITC
Taf14ET F220A = molecular target: T3, Taf14ET F220A (Saccharomyces cerevisiae); experiment: ITC
T3 chain: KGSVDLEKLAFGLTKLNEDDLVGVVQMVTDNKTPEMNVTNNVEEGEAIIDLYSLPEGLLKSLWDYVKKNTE

[3] = molecular target: T2, Taf14ET (Taf14_(174–244)); experiment: ITC
[4] = molecular target: B8; experiment: ITC; peptide at 1.0 mM in the syringe titrated into Taf14ET at 0.1 mM in the cell; 20 mM phosphate pH 7.0, 100 mM NaCl, 2 mM DTT; 25 °C; one binding site model; conditions: both partners purified
Sth1EBM L1210A = Sth1EBM L1210A (Saccharomyces cerevisiae, UniProt P32597 1183-1240, L1210A); experiment: ITC
Sth1EBM I1208A = Sth1EBM I1208A (Saccharomyces cerevisiae, UniProt P32597 1183-1240, I1208A); experiment: ITC
Sth1EBM K1207E = Sth1EBM K1207E (Saccharomyces cerevisiae, UniProt P32597 1183-1240, K1207E); experiment: ITC
Sth1EBM V1206A = Sth1EBM V1206A (Saccharomyces cerevisiae, UniProt P32597 1183-1240, V1206A); experiment: ITC
Sth1EBM L1204A = Sth1EBM L1204A (Saccharomyces cerevisiae, UniProt P32597 1183-1240, L1204A); experiment: ITC
Sth1EBM K1209E = Sth1EBM K1209E (Saccharomyces cerevisiae, UniProt P32597 1183-1240, K1209E); experiment: ITC
[5] = molecular target: the molecule itself; experiment: 15N-1H HSQC at several concentrations; apo 15N-Taf14ET at 0.05, 0.1, 0.2 and 0.5 mM
[6] = molecular target: T2, Taf14ET (Taf14_(174–244)); experiment: ITC
Sth1_(1183–1359) = molecular target: T4, Sth1_(1183–1359) (Saccharomyces cerevisiae, UniProt P32597 1183-1359); experiment: pull-down; GST-tagged ET domain (25 μg) and binding partner (50 μg) with glutathione–Sepharose 4B beads; 25 mM Tris-HCl pH 8.0, 150 mM NaCl, 2 mM DTT; 4 °C, 3 h; SDS-PAGE; conditions: both partners purified
T4 construct: source: E. coli Rosetta, purified
T4 sequence (looked up): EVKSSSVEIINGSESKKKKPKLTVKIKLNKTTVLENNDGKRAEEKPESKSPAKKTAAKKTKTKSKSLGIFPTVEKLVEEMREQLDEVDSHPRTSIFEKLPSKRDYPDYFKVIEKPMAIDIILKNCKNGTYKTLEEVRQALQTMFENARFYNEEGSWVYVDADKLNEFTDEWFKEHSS

GST-Taf14_(174–244) = molecular target: B13; experiment: as above; conditions: both partners purified

## DSKLNIKITAKQYHVKRLKKLIN [Ino80EBM L377A]
[1]
  Kd: 3.87 µM

## SPPCYIIDHIPGHSLLLSAKLPGKVNTKEE [Snf5EBM I789A]
[1]
  Kd: 189 µM

## DSKLNAKITLKQYHVKRLKKLIN [Ino80EBM I373A]
[1]
  Kd: 3.86 µM

## SPPCYIIDHIPGHSLLASIKLPGKVNTKEE [Snf5EBM L787A]
[1]
  Kd: 41.5 µM

B1: Sth1EBM (Sth1_(1183–1240)) (domain or fragment, Saccharomyces cerevisiae, UniProt P32597 1183-1240, looked up)
chain: EVKSSSVEIINGSESKKKKPKLTVKIKLNKTTVLENNDGKRAEEKPESKSPAKKTAAK
notes: source: E. coli Rosetta, purified (Ni-NTA, on-beads digestion, SEC)
[2]
  Kd: 0.372 µM and 0.194 µM
Taf14ET F220R
  Kd: 3.5 µM
Taf14ET I222R
  Kd: 54.6 µM
Taf14ET F220A
  Kd: 0.68 µM
[3]
  Kd: 0.05 µM
[4]
  Kd: ~0.055 µM

B2: Sth1EBM I1208A (domain or fragment, Saccharomyces cerevisiae, UniProt P32597 1183-1240, looked up)
chain: EVKSSSVEIINGSESKKKKPKLTVKAKLNKTTVLENNDGKRAEEKPESKSPAKKTAAK
notes: also called Sth1^I1208A; source: E. coli Rosetta, purified (same protocol as the wild type)
[4]
  fold increase of KD against wild-type Sth1EBM: 270 fold

B3: Sth1EBM K1207E (domain or fragment, Saccharomyces cerevisiae, UniProt P32597 1183-1240, looked up)
chain: EVKSSSVEIINGSESKKKKPKLTVEIKLNKTTVLENNDGKRAEEKPESKSPAKKTAAK
notes: source: E. coli Rosetta, purified (same protocol as the wild type)
[4]
  fold increase of KD against wild-type Sth1EBM: 154 fold

B4: Sth1EBM K1209E (domain or fragment, Saccharomyces cerevisiae, UniProt P32597 1183-1240, looked up)
chain: EVKSSSVEIINGSESKKKKPKLTVKIELNKTTVLENNDGKRAEEKPESKSPAKKTAAK
notes: as for B3
[4]
  fold increase of KD against wild-type Sth1EBM: 79 fold

B5: Sth1EBM L1204A (domain or fragment, Saccharomyces cerevisiae, UniProt P32597 1183-1240, looked up)
chain: EVKSSSVEIINGSESKKKKPKATVKIKLNKTTVLENNDGKRAEEKPESKSPAKKTAAK
notes: as for B3
[4]
  binding result: binds

B6: Sth1EBM L1210A (domain or fragment, Saccharomyces cerevisiae, UniProt P32597 1183-1240, looked up)
chain: EVKSSSVEIINGSESKKKKPKLTVKIKANKTTVLENNDGKRAEEKPESKSPAKKTAAK
notes: as for B3
[4]
  binding result: binds

B7: Sth1EBM V1206A (domain or fragment, Saccharomyces cerevisiae, UniProt P32597 1183-1240, looked up)
chain: EVKSSSVEIINGSESKKKKPKLTAKIKLNKTTVLENNDGKRAEEKPESKSPAKKTAAK
notes: as for B3
[4]
  binding result: binds

## B8
Sth1EBM L1210A
  Kd: 1.14 µM
Sth1EBM I1208A
  Kd: 13.4 µM
Sth1EBM K1207E
  Kd: 3.94 µM and 7.69 µM
Sth1EBM V1206A
  Kd: 2.04 µM
Sth1EBM L1204A
  Kd: 2.06 µM
Sth1EBM K1209E
  Kd: 7.69 µM and 3.94 µM
[5]
  binding result: binds

B9: Sas3_(111–129) (peptide, UniProt P34218 111-129, looked up)
peptide: SEELKVRIKYDSIKFFNFE
notes: Sas3, Saccharomyces cerevisiae, residues 111-129; source: synthetic peptide (Scilight-Peptide and GenScript) for NMR
[4]
  binding result: binds
[6]
  Kd: 31.3 µM

B10: Ino80_(368–390) (peptide, UniProt P53115 368-390, looked up)
peptide: DSKLNIKITLKQYHVKRLKKLIN
notes: Ino80, Saccharomyces cerevisiae, residues 368-390; also called Ino80EBM; source: synthetic peptide (Scilight-Peptide and GenScript) for NMR
[4]
  binding result: binds
[6]
  Kd: 0.25 µM

B11: Snf5_(771–800) (peptide, UniProt P18480 771-800, looked up)
peptide: SPPCYIIDHIPGHSLLLSIKLPGKVNTKEE
notes: also called Snf5EBM; source: synthetic peptide (Scilight-Peptide and GenScript) for NMR
[4]
  binding result: binds
[6]
  Kd: 2.48 µM

B12: Taf2_(1393–1406) (peptide, UniProt P23255 1393-1406, looked up)
peptide: RSFMVKIRTKNDAK
notes: Taf2, Saccharomyces cerevisiae, residues 1393-1406; source: synthetic peptide (Scilight-Peptide and GenScript) for NMR
[4]
  binding result: binds
[6]
  Kd: 0.8 µM

## B13
Sth1_(1183–1359)
  binding result: binds

## KKKPKLTVKIKLNKTTVLENNDGKRAE (domain or fragment, Saccharomyces cerevisiae, UniProt P32597 1199-1225, looked up, source: E. coli Rosetta, purified) [Sth1_(1199–1225)]
GST-Taf14_(174–244)
  binding result: binds

B14: Tfg1 motif from 613 to 628 (peptide, UniProt P41895 613-628, looked up)
peptide: IKNCVIILKGDKKILK
notes: Tfg1, Saccharomyces cerevisiae, first motif, residues 613-628
[4]
  Kd: ~17 µM

B15: Tfg1 motif from 685 to 700 (peptide, UniProt P41895 685-700, looked up)
peptide: EAIGDGKVNIKEFGKF
notes: Tfg1, Saccharomyces cerevisiae, second motif, residues 685-700
[4]
  Kd: ~9 µM

B16: Tfg1 fragment containing both motifs (domain or fragment)
chain: DTLSKSKRSSPKKQQKKATNAHVHKEPTLRVKSIKNCVIILKGDKKILKSFPEGEWNPQTTKAVDSSNNASNTVPSPIKQEEGLNSTVAEREETPAPTITEKDIIEAIGDGKVNIKEFGKFIRRKYPGAENKKLMFAIVKKLCRKVGNDHMELKKE
[4]
  Kd: ~0.33 µM
